Assays:
[1] = Biotransformation of dodecanoic acid using CFE of E. coli, Tris-HCl buffer; format: biochemical; details: C12 fatty acid; CYP505A1 only tested in CFEs of E. coli
Method: (§1) Expression of genes in E. coli was performed by using ZYP-5052 auto-induction medium (Table 1) with in the case of the CYP 1 mM 5-aminolevulinic acid and 0.05 mM FeCl3 added. The CYP505E3 culture was cultivated using baffled flasks and incubated at 20° C. and 180 rpm for 24 h, while the GDH, and HLADH expressing cultures were all cultivated at 25° C. and 200 rpm for 24 h. Cultures were harvested through centrifugation (6 000×g, 10 min) and 1 g (wet weight) resuspended in 2 ml, 5 ml or 10 ml Tris-HCl, Phosphate or MOPS buffer, as indicated, (pH 8, 200 mM) containing 100 mM of glucose and glycerol. CFEs were obtained by a single passage of the suspended cells through a One Shot Cell Disrupter (Constant Systems) at 207 MPa. The soluble fraction was separated from unbroken cells by centrifugation (20 000×g, 20 min).
(§2) The biotransformation reaction mixture (BRM) consisted of CYP and GDH CFE suspensions prepared from cells in Tris-HCl buffers (1 g wet weight in 2 ml buffer) mixed in a 1:1 ratio with 0.1 mM NADPH added. Dodecanoic acid, tetradecanoic acid, hexadecanoic acid, 1-tetradecanol and 1-hexadecanol (20 μl of a 255 mM stock solution in DMSO) were added to 40 ml amber glass vials containing 1 ml BRM to give final substrate concentrations of 5 mmol·LBRM^−1. These vials were placed on an orbital shaker at 20° C., 200 rpm, oscillation amplitude 26 mm. Vials were removed after 24 h for extraction. Biotransformations were stopped by adding 170 ul of 0.5M HCl, extracted with 2×500 μl EtOAc and subjected to GC-MS analysis. A sample of δ-dodecalactone in ethyl acetate (0.1 mM) was also methylated with TMSH and subjected to GC-MS analysis.

[2] = Biotransformation of tetradecanoic acid using CFE of E. coli, Tris-HCl buffer; format: biochemical
Method: as §1, §2

[3] = Biotransformation of hexadecanoic acid using CFE of E. coli, Tris-HCl buffer; format: biochemical
Method: as §1, §2

[4] = Biotransformation of 1-tetradecanol using CFE of E. coli, Tris-HCl buffer; format: biochemical; details: C14 alcohol; CYP505A1 only tested in CFEs of E. coli
Method: as §1
as §2, with “Vials were removed after 24 h for extraction. Biotransformations were stopped by adding 170 ul of 0.5M HCl, extracted with 2×500 μl EtOAc and subjected to GC-MS analysis. A sample of δ-dodecalactone in ethyl acetate (0.1 mM) was also methylated with TMSH and subjected to GC-MS analysis.” left out

[5] = Biotransformation of dodecanoic acid to δ-dodecalactone by CYP505An expressed in Pichia pastoris; format: cell-based; details: 10 mM fatty acid, 12 h, acidified
Method: (§3) A transformant of Pichia pastoris KM71 harbouring the gene encoding CYP505An (SEQ ID No 5) was grown and harvested as described above. The harvested cells were resuspended 1 g in 40 ml of MOPS (200 mM, 100 mM glucose, 100 mM glycerol, pH 8) buffer and 12.5 ml was transferred to each of two 500 ml Erlenmeyer flask. One flask was supplemented with 250 μl of a 500 mM dodecanoic acid stock solution (in DMSO) and the other flask with 250 μl of a 500 mM tetradecanoic acid stock solution (in DMSO) to give in each case a final concentration of 10 mM of the fatty acid. The flasks were incubated at 25° C. and 180 rpm for 12 h. Samples (800 μl) were withdrawn after 12 h and 136 μl of 5 M HCl added. These samples were stored for 5-6 h at room temperature to convert hydroxy fatty acids to the lactone. These were then extracted with ethyl acetate (2×800 μl).

[6] = Biotransformation of tetradecanoic acid to δ-dodecalactone by CYP505An expressed in Pichia pastoris; format: cell-based; details: 10 mM fatty acid, 12 h, acidified; via β-oxidation
Method: as §3

[7] = C14 fatty acid, CYP505A1 only tested in CFEs of E. coli
[8] = C16 fatty acid, GC-MS peak height

| Molecule | other hydroxylase activities (in brackets) C12FA [1] | ω-7 hydroxylase activity C12FA [1] | products identified from tetradecanoic acid (GC-MS, methylated samples) ([2]; 5 mmol/L substrate, CFE of E. coli, Tris-HCl, 24 h) | other hydroxylase activities (in brackets) C14FA [2, 7] | ω-7 hydroxylase activity C14FA [2, 7] | products identified from hexadecanoic acid (GC-MS, methylated samples) ([3]; 5 mmol/L substrate, Tris-HCl, 24 h) | other hydroxylase activities (in brackets) C16FA [3, 8] | ω-7 hydroxylase activity C16FA [3, 8] | ω-7 hydroxylase activity C14o [4] | δ-dodecalactone production from dodecanoic acid [5] | δ-dodecalactone production from tetradecanoic acid [6] |
| --- | --- | --- | --- | --- | --- | --- | --- | --- | --- | --- | --- |
| CYP505A1: known sub-terminal fatty acid hydroxylase of medium chain fatty acids from Fusarium oxysporum, Seq ID No 8 (protein, listed as Fusarium oxysporum) MAESVPIPEPPGYPLIGNLGEFTSNPLSDLNRLADTYGPIFRLRLGAKAPIFVSSNSLINEVCDEKRFKKTLKSVLSQVREGVHDGLFTAFEDEPNWGKAHRILVPAFGPLSIRGMFPEMHDIATQLCMKFARHGPRTPIDTSDNFTRLALDTLALCAMDFRFYSYYKEELHPFIEAMGDFLTESGNRNRRPPFAPNFLYRAANEKFYGDIALMKSVADEVVAARKASPSDRKDLLAAMLNGVDPQTGEKLSDENITNQLITFLIAGHETTSGTLSFAMYQLLKNPEAYSKVQKEVDEVVGRGPVLVEHLTKLPYISAVLRETLRLNSPITAFGLEAIDDTFLGGKYLVKKGEIVTALLSRGHVDPVVYGNDADKFIPERMLDDEFARLNKEYPNCWKPFGNGKRACIGRPFAWQESLLAMVVLFQNFNFTMTDPNYALEIKQTLTIKPDHFYINATLRHGMTPTELEHVLAGNGATSSSTHNIKAAANLDAKAGSGKPMAIFYGSNSGTCEALANRLASDAPSHGFSATTVGPLDQAKQNLPEDRPVVIVTASYEGQPPSNAAHFIKWMEDLDGNDMEKVSYAVFACGHHDWVETFHRIPKLVDSTLEKRGGTRLVPMGSADAATSDMFSDFEAWEDIVLWPGLKEKYKISDEESGGQKGLLVEVSTPRKTSLRQDVEEALVVAEKTLTKSGPAKKHIEIQLPSAMTYKAGDYLAILPLNPKSTVARVFRRFSLAWDSFLKIQSEGPTTLPTNVAISAFDVFSAYVELSQPATKRNILALAEATEDKDTIQELERLAGDAYQAEISPKRVSVLDLLEKFPAVALPISSYLAMLPPMRVRQYSISSSPFADPSKLTLTYSLLDAPSLSGQGRHVGVATNFLSHLTAGDKLHVSVRASSEAFHLPSDAEKTPIICVAAGTGLAPLRGFIQERAAMLAAGRTLAPALLFFGCRNPEIDDLYAEEFERWEKMGAVDVRRAYSRATDKSEGCKYVQDRVYHDRADVFKVWDQGAKVFICGSREIGKAVEDVCVRLAIEKAQQNGRDVTEEMARAWFERSRNERFATDVFD | (+++) (+++ 1 million < RA < 10 million) | − | only sub-terminally hydroxylated products | (++) (++ 0.1 million < RA < 1 million) | − | only sub-terminally hydroxylated products | (++) (++ 0.1 million < RA < 1 million) | − | − |  |  |
| CYP505An: CYP505 cytochrome P450 monooxygenase from Aspergillus niger, SEQ ID No 5 (protein, Aspergillus niger) MKDAERIPGPKPLPVVGNLLDIDPEHGLQSIIAFADKYGPLFQITINGEKQIFATSQALVDELCDESRFHKAVVTGLEVLRLLAHDGLFTAYHGERGWGIAHRILVPAFGPLRIRNMLDDMSDVAQQLCLKWARQGGSTSINITEDFTRLTLDTIALCTMGFRLNSFYNNETMHPFVQSMLYVLKEADVQANLPGIANSIRVSAQRRMHKNIEAMRTMARGIIQERRKNKNPVDDILNTLLNGRDPVTGEGMSDDSIIDNVITFLIAGHETTSGLLSFTFYFLIQHPHILKKAQEEVDETVGLAQISAQHLAELPYIDAILKESLRLMPTAPGFAVTPKKTEVLGGKWMINAGQPVNVLLPACLRDQSVFGPDADEFHPERMLAENFSKLPPNSWKPFGNGERGCIGRAFAWQEAQLVVAMILQTFDLVPDDPSYQLRIKETLTIKPDGFRIRALLRRGQTATGLSRRSMLVARDGSSGESSNHLAEARGDHAPARGQPVSFFYGSNSGTCKALAHQLASNMMSRGYTTQKLAPLDNAVGNLPRDQPVIILTTTYDGQPTDDAKKFVAWLETGNVPSLQGISYAVFGCGHHDWTQTFYRIPILIDDLMHKAGATRLAPRGAANAAVSDLFSDLEAWEETSLLPALRENFLPSNSTDFDPLNPHQIQLSLSKPRRVDLHKGLIEAKVTAVRVLTSPDTPEKRHLEFCFQGDTSLRPGDHLNILPVNPPSTVSRVLAQFNLAPDYNITVNSFNTLGLPQATPVSASELFSSYVELCQPATRNNLKALIAATQSDPDKQELNRLYDSYEFIVRDKRVSVLDLLEQFPSISLPIAAFISMLPALRVRTYSLSMAPSFKPSHSSLTFSVINEPAWRGSGQHLGVASNYLASLTSGSIFYFSPRPAKESFHLPKDPSNTPIIMICAGSGLAPFLSFIQDRMVLKQQYKPLAKAFLFFGCRGRSLDDLYHEELSEFEAAGVVEIRRAYSKTPDFDIAKGCRYVQHRLVTEGQAILSLWSQNATIYVCGSTNMAKGVEAVLQNMLGPLPKERYVTEIF |  |  |  |  |  |  |  |  |  | δ-dodecalactone was produced | δ-dodecalactone was produced |

Source: patent publication US10975360B2, “Process for the modification of alkanes, fatty acids and fatty alcohols” (priority 2016, dated 2021)
